Laboratory results: patent US20110171194A1 (TRUSTEES OF COLUMBIA UNIVERSITY IN THE CITY OF NEW YORK, published 2011)

Biological target: T1, Aβ(1-42) (UniProt P05067 672-713)
T1 construct: domain: Aβ(1-42); Residue numbers count on Aβ, not on APP
Assay: 125I-labeled GST-ABAD truncation binding to immobilized Aβ(1-42)

T1 sequence (P05067 672-713 limits assumed): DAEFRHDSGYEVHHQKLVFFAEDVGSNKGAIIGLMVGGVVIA

B1: GST-ABAD(159-261) (other, UniProt Q99714 159-261, looked up)
chain: FEGQVGQAAYSASKGGIVGMTLPIARDLAPIGIRVMTIAPGLFGTPLLTSLPEKVCNFLASQVPFPSRLGDPAEYAHLVQAIIENPFLNGEVIRLDGAIRMQP
modifications: 125I-labeled
notes: not shown: glutathione S-transferase (GST) tag
  binding result: no binding
